The record followed here is US20220088057.

The subject of the data set is GST-fusion SMAD3 protein (Sigma-Aldrich Co. LLC.).

On to “His-fusion NEK6 protein (Eurofins Scientific SE)”, for which the “amount of phosphorylated SMAD3 (Western blot after in vitro kinase reaction of purified proteins with ATP)” value is on record as “By using NEK6 protein, the amount of phosphorylated SMAD3 was elevated”.
